This is an account of results in paper PMC6420597, “The MurG glycosyltransferase provides an oligomeric scaffold for the cytoplasmic steps of peptidoglycan biosynthesis in the human pathogen Bordetella pertussis” (Scientific Reports, 2019).

Data set [1] addresses MurE-MurF bifunctional fusion protein from Bordetella pertussis, His-tagged (Bordetella pertussis (strain ATCC 9797/DSM No 5571)). Description: SEC-MALS; larger SEC form (dimer pool) of MurE-MurF; 25 mM HEPES pH 7.5, 300 mM NaCl, 10 mM MgCl2, 5% glycerol; room temperature. On the technique in general: In gel filtration, larger molecules generally elute earlier.
The target is the same in data set [2]. The data set can be described thus: AUC; sedimentation velocity, dimer pool of MurE-MurF at 40, 10 and 2.5 μM, 42,000 rpm, 20 °C.
Data set [3] has the same target.
Data set [4] concerns the molecule itself. Description: AUC; sedimentation velocity, MurG 2 mg/ml in buffer with DM (1.2 x CMC), 42,000 rpm, 20 °C.
Data set [5] concerns the target FITC-labelled MurE-MurF fusion protein from Bordetella pertussis (Bordetella pertussis (strain ATCC 9797/DSM No 5571)). The data set can be described thus: MST; FITC-labelled MurE-MurF at a fixed concentration, oligomeric MurG (purified without detergent) titrated from 1 nM to 37 μM; 25 mM HEPES pH 7.5, 150 mM NaCl, 10 mM MgCl2, 5% glycerol, no detergent; apparent KD, no clear plateau.

For data set [6] the target is unchanged. The data set can be described thus: MST; FITC-labelled MurE-MurF at a fixed concentration, MurG purified in detergent titrated; 25 mM HEPES pH 7.5, 150 mM NaCl, 10 mM MgCl2, 5% glycerol, 0.17% w/v DM; 22 °C; triplicate.

Usually stoichiometry N stands for a count of units in the complex or per binding partner. “MurE-MurF bifunctional fusion protein from Bordetella pertussis, His-tagged (enzyme)”: the stoichiometry N in data set [1] and in data set [2] was 2 in each case. The molecule also displayed a specific activity of the MurF-catalysed reaction (D-Ala-D-Ala-adding) of the dimeric form of MurE-MurF; the monomeric form gave 14.1 µmol/min/mg in data set [3] of 7.5 µmol/min/mg.

B1: MurG glycosyltransferase from Bordetella pertussis, N-terminal Strep-tagged (enzyme, UniProt Q7VUQ3 1-357, looked up)
chain: MSAPTILIMAGGTGGHIMPGLAVAEVLRERGWRVLWLGNPDKMEGRLVPPRGIELVPLRFQGVRGRGAAALLKLPFLLARACAQAWRRLADIRPDVVLGMGGYVAFPGGVMAALRRTPLVVHEQNAVAGTANRWLARLARRVLSGFPGVLPRGEALGNPVRADLCALPEPAERYAGRSGALRVLVVGGSLGAHALNTTVPQALALLPEQARPQVVHQAGEQHLPALQQAYAQAGVQADCRAFIDDMADAMAQADLLICRAGAMTVSEVAAAGVAALFVPFPHAIDDHQTANARFLSDAQAAWLQPQASLTPQWLAQWLGQRTRQELQAVAGRARTHALPRAAAHIADVCEQAARRAS
notes: MurG, Bordetella pertussis strain ATCC 9797/DSM No 5571; printed as a 357-residue protein; the murG gene was cloned into a modified pET30b; The Strep-tag is TEV-cleavable, but no cleavage is described; It is not clear whether the 357 residues include the tag; The oligomeric state depends on detergent: dimer in DDM/DM, tetramers and higher without; The discussion gives a mass of 50 kDa; also …
With B1, the “stoichiometry N” value in data set [4] was determined as 2. In addition, the Kd came to 970 nM in data set [5] and 570 nM in data set [6].
